Test results taken from patent US8912148B2, “Methods of treating a disease or condition associated with abnormal angiogenesis” (Covx Technology Ireland, Ltd., priority 2006, dated 2014).
Starred links: 1 amine or outer side, 2 acyl side, 3 side chain; linkers in the order of their positions; H or OH if unused. Non-standard residues stand in square brackets, D forms with d. No end group written: not given here. Phe(4-COOH) = N[C@@H](Cc1ccc(C(=O)O)cc1)C(=O)O; AcK = CC(=O)NCCCC[C@H](N[*:1])C(=O)[*:2]; 0P = not defined here

What was measured:
[1] = target: T1, human angiopoietin-2 protein (Homo sapiens, UniProt O15123); assay: Competitive ELISA: inhibition of Ang-2-Tie-2 binding, plates coated with Ang-2 (Table 7)
T1 construct: purchased R&D Systems
T1 sequence (O15123 19-496): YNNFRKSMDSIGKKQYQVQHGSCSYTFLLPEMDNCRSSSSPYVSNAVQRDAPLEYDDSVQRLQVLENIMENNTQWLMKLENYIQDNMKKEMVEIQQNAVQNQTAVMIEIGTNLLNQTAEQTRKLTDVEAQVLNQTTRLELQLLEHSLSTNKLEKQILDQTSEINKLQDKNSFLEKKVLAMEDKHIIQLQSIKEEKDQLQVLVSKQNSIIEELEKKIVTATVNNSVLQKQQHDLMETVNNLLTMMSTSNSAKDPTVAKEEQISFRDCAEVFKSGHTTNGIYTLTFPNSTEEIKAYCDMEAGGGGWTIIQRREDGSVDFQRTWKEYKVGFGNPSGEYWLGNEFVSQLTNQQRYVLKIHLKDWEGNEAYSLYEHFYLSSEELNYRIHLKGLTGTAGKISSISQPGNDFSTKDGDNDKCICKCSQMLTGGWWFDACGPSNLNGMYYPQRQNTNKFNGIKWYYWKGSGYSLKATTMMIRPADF
Method: The ability of Ang-2 binding compounds to interact with Ang-2 was measured by competition with Tie-2.
For competitive ELISA, human angiopoietin-2 protein and Tie-2-Fc (R&D Systems) were reconstituted without carrier protein. Mouse anti-human Tie-2 (Pharmingen) was used as the primary antibody and goat anti-mouse-IgG1-HRP (Pierce) was used as the secondary antibody. TMB substrate from Pierce was used.
High-binding half-well plates were coated with Ang-2 (100 ng/well) in 50 μl PBS and incubated at 4° C. overnight. Plates were washed three times with washing buffer (0.1% Tween 20, PBS, pH 7.4) and blocked with Superblock (Scytek), 100 μl/well at room temperature (“RT”) for 1 hour. After removing the blocking solution, 50 μl of an Ang-2 binding peptide compound (1 uM and 5× serial dilution) in the presence of 0.25 nM hTie-2-Fc using Superblock as diluent was added and incubated at RT for 2 hours. Plates were washed 3 times with washing buffer. Then, 50 ul of 0.1 ug/ml mouse anti-human Tie-2 diluted in Superblock added and incubated at RT for 1 hour. Following incubation, 50 ul of 1:5,000 dilution of goat anti-mouse IgG-HRP in Superblock was then added and incubated at RT for one hour. After washing 3 times, 50 μl (25 μl TMB+25 μl H2O2) was added, and incubated for 3-5 minutes. Color development was monitored and stopped with 25 μl of 2 M H2SO4. OD450 nm with a correction wavelength of 540 nm was measured.
In Table 7, compounds of SEQ ID NOs: 21-23 are Ang-2 binding peptides alone, not conjugated to either a linker or linker-antibody; compounds of SEQ ID NOs:65 and 66 are Ang-2 binding peptides conjugated to a linker-antibody, where the linker is 4P (“4” PEG) and has the structure of the linker shown in FIG. 2; and compounds 26-63 are Ang-2 binding peptides conjugated to a linker-antibody, where the linker is OP (“O” PEG) and has the structure of the linker shown in FIG. 3. Compounds 24-63 were conjugated to humanized aldolase antibody h38c2 and the linker structures shown in FIG. 2 (4P) and FIG. 3 (OP) when obtainng the data shown below, except where otherwise indicated.
In Table 7, amino acid sequences of peptide compounds are shown with the position of linker OP or 4P indicated in parentheses following the internal amino acid residue to which the linker is attached. For compound of SEQ ID NO:67, the N-terminal “OP” linker is indicated at the beginning of the peptide sequence.

Recombinant human Ang-2 = target: T2, Recombinant human Ang-2 (Homo sapiens, UniProt O15123); assay: Truncation study: competition with compound 43 linked to linker and h38c2 for binding to coated Ang-2 (Table 9); conditions: competition with compound 43-linker-h38c2 at 10 ng/mL, read-out: Ang-2 T IC50
T2 sequence (O15123 19-496): T1 sequence (O15123 19-496)
Method: Recombinant human Ang-2 was coated on microtiter plates at 0.5 μg/mL in 100 μL, overnight at 2-8° C. Plates were washed between all steps and all subsequent incubations occurred at room temperature. Plates were blocked with 250 μL per well of SuperBlock for 1-3 hours. Test compounds were pre-mixed with compound 43 linked to linker (as shown in FIG. 3) and h38c2 at 10 ng/mL. Peptide mixtures in 100 μL were then added at the listed final concentrations, the plates sealed, and incubated for 1-2 hours. Bound compound 43 was detected with 100 μL of a 1:20,000 dilution of HRP-labeled anti-human IgG reagent for 1-2 hours. Finally, 100 μL TMB substrate was added for 10 minutes and the reaction stopped with 100 μL of 2 NH2SO4 stop solution.

Co10205 cells = assay: Xenograft studies: subcutaneous tumor growth in nude mice, % T/C (Table 10); type: in vivo
Method: Co10205 cells were cultured with 10% FBS RPMI medium and 3×10^6 cells in 0.1 ml Hank's balanced salt solution (HBSS) were injected subcutaneously into the upper right flank of nude mice. After 7-9 days, animals were randomized into appropriate number of groups with average tumor size of 200-300 mm^3. Mice were then treated with the requisite amount of compounds of the invention and tumor volumes were measured twice a week. Animals were terminated once their average tumor volume reached 2000 mm^3. Upon termination, tumors were weighed and saved for further histological studies. Treatment efficacy was evaluated by measuring the difference in the tumor volumes of treated versus control groups. Results are reported as % T/C, where % T/C was calculated as: % T/C=(Vt−V0)/(Ct−C0)×100, where, V0 and Vt were the average tumor volumes of treated groups at the beginning and termination of the group. CO and Ct were the average tumor volumes of the control group at the beginning and termination of the group (Table 10).

[2] = target: T1, human angiopoietin-2 protein; assay: Reverse competition ELISA: inhibition of Ang-2-Tie-2 binding, plates coated with Tie-2-Fc (Table 8); conditions: reverse competitive ELISA; peptide linked to antibody h38c2 via 0P linker
Method: For reverse competition ELISA, human Tie-2-Fc, angiopoietin-2 protein, biotinylated anti-human Ang-2 antibody, and streptavidin HRP(R&D Systems) and TMB substrate from Pierce were used.
High-binding half-well plates were coated with Tie-2-Fc (50 ng/well) in 50 μl PBS and incubated at 4° C. overnight. Plates were washed three times with washing buffer (0.1% Tween 20, PBS, pH 7.4) and blocked with Superblock, 150 μl/well at RT for 1 hour. Plates were washed three times. Following washing, 50 μl of an Ang-2 binding peptide compound (50 nM, 5× serial dilution) in the presence of 50 ng/ml (0.83 nM) Ang-2 in Superblock were added and incubated at RT for 1 hour. Plates were washed 3 times, 50 μl of 1 μg/mlbiotinylated anti-Ang-2 detection antibody in Superblock was added and incubated at RT for 2 hours. Plates were washed 3 times, and 50 μl of streptavidin HRP (1:200 dilution in Superblock) was added at RT for 20 minutes. Plates were washed 3 times, and 50 μl (25 μl TMB+25 μl H2O2) substrate solution was added and incubated for 20-30 minutes. Color development was stopped with 25 μl of 2 M H2SO4. OD450 nm with a correction wavelength of 540 nm was measured.
IC50 values are provided for the targeting peptide plus linker (as shown in FIG. 3) and the targeting peptide linked to an antibody (P) via the linker of FIG. 3, unless otherwise specified.

[3] = P = targeting peptide linked to antibody h38c2 via the linker, read-out: Ang-2 P IC50
[4] = T = targeting peptide plus linker (compounds 21-23: peptide alone), read-out: Ang-2 T IC50

Substance | IC50 [1, 3] | other results
25: "compounds of SEQ ID NOs:65 and 66 are Ang-2 binding peptides conjugated to a linker-antibody, where the linker is 4P (“4” PEG)" (QNYQPLDELDXTLYDQFMLQQG; 4P PEG linker conjugated to antibody; Anti-angiogenic peptide) [Compound 25] | 0.0405 µM | –
31 (Q[AcK]YQPLDELDETK(0P)YDQFMLQQG; reading uncertain; also: printed as Q(AcK)Y QPL DEL DET K(0P)YD QFM LQQ G) [Compound 31] | > 1 µM | IC50 [1, 4]: > 5 µM
33 (Q[AcK]YQPLDEK(0P)DETLYDQFMLQQG; reading uncertain) [Compound 33] | 0.0888 µM | –
35 (QXYQXLDELDXTLYDQFMLQQG; AcK; hydroxyproline; K(0P); Anti-angiogenic peptide) [Compound 35] | 0.0167 µM | –
36 (QXYQPLDELDXTIYDQFMLQQG; AcK; K(0P) modified lysine; Anti-angiogenic peptide) [Compound 36] | 0.153 µM | –
37 (QXYQPLDEIDXTLYDQFMLQQG; AcK; K(0P) modified lysine; Anti-angiogenic peptide) [Compound 37] | 0.08 µM | –
38 (QXYQPLDELDXTXYDQFMLQQG; not fully specified; AcK; K(0P); homocyclohexylalanine; Anti-angiogenic peptide) [Compound 38] | 0.703 µM | IC50 [1, 4]: > 5 µM
39 (QXYQPLDELDXTXYDQFMLQQG; AcK; K(0P); homophenylalanine; Anti-angiogenic peptide) [Compound 39] | 0.258 µM | –
40 (QXYQPLDELDXTXYDQFMLQQG; AcK; K(0P); thienylalanine; Anti-angiogenic peptide) [Compound 40] | 0.358 µM | IC50 [1, 4]: > 5 µM
59 (QRYQPLDELDXTLYDQFMLQQG; K(0P) modified lysine; Anti-angiogenic peptide) [Compound 59] | 0.0161 µM | –
60 (QHYQPLDELDXTLYDQFMLQQG; not fully specified; K(0P) modified lysine; Anti-angiogenic peptide) [Compound 60] | 0.0144 µM | –
62 (Q[AcK]YQPLDE[AcK]DK(0P)TL[Phe(4-COOH)]DQFMLQQG; not fully specified (C-terminus); reading uncertain; also: 0P linker on K11, antibody h38c2 conjugate or reactive form) [Compound 62] | 0.0413 µM | –
87 (Ac-[AcK]YQPLDE[AcK]DK(0P)TLYDQFMLQQG-NH2; reading uncertain; also: 0P linker on K10, reactive end group for antibody) [Compound 87] | – | IC50 (Recombinant human Ang-2): > 4 µM
88 (Ac-YQPLDE[AcK]DK(0P)TLYDQFMLQQG-NH2; reading uncertain; also: 0P linker on K9, reactive end group for antibody) [Compound 88] | – | IC50 (Recombinant human Ang-2): > 4 µM
89 (Ac-QPLDE[AcK]DK(0P)TLYDQFMLQQG-NH2; reading uncertain; also: 0P linker on K8, reactive end group for antibody) [Compound 89] | – | IC50 (Recombinant human Ang-2): > 4 µM
90 (Ac-PLDEK(Ac)DK(0P)TLYDQFMLQQG-NH2; reading uncertain; also: 0P linker on K7, reactive end group for antibody) [Compound 90] | – | IC50 (Recombinant human Ang-2): > 4 µM
(Amido 2-PEG)QAcKY QPL DEL DK(OP)T LYD QFMLQQ G (QXYQPLDELDXTLYDQFMLQQG; amido-2-PEG cap; acetyl-lysine; OP linker at K11; Anti-angiogenic peptide) [Compound 52] | 0.0181 µM | –
QAcKY QPL DEL DK(4P)T LYD QFM LQQ G (QXYQPLDELDXTLYDQFMLQQG; not fully specified; acetyl-lysine; 4P PEG linker to antibody at K11; Anti-angiogenic peptide) [Compound 24, "the second amino acid residue is epsilon acyl lysine ... the linking position (in this case a 4P linker) is the lysine residue 11"] | 0.0174 µM | –
R^1-QNY QPL DEL DKT LYD QFM LQQ G-R^2 (QNYQPLDELDKTLYDQFMLQQG; also: variable termini R1, R2) [Compound 28] | 0.0286 µM | % TC 3 mg/kg 1×/wk (Co10205 cells; 3 mg/kg 1×/wk): 34%; % TC 10 mg/kg 1×/wk (Co10205 cells; 10 mg/kg 1×/wk): 38%; IC50 [1, 4]: 0.175 µM; IC50 [2]: 0.00015 µM
